The record followed here is publication PMC7822688, “W196 and the β-Hairpin Motif Modulate the Redox Switch of Conformation and the Biomolecular Interaction Network of the Apoptosis-Inducing Factor” (Oxidative Medicine and Cellular Longevity, 2021).

A short description of series [1]: Steady-state DCPIP-dependent diaphorase (NADH oxidase) activity. Format: biochemical. As to conditions: steady-state, NADH donor, 95 μM DCPIP acceptor, 25°C, 50 mM potassium phosphate, pH 7.4 (table footnote). The source says:
[…] When saturation profiles on the pyridine nucleotide concentration were observed, kinetic constants were estimated by fitting initial reaction rates at different coenzyme concentrations to the Michaelis-Menten equation: (2) ν/e=kcat NADH/KmNADH+NADH,ν/e=kcat/KmNADHNADH/1+kcat/KmNADHNADH/kcat, where v stands for the initial velocity, e is the enzyme concentration, Km^NADH is the Michaelis constant for the enzyme-NADH complex, kcat is the turnover number of the enzyme, and kcat/Km^NADH is the enzyme catalytic efficiency.

A short description of series [2]: Stopped-flow reduction of hAIF∆1-101ox by NADH (hydride transfer). The series is classed as biochemical. The following applies: pre-steady-state, 25°C, pH 7.4. How it is done: A SX18.MV stopped-flow spectrophotometer (Applied Photophysics Ltd., Surrey, UK), interfaced with the ProData-SX software and a photodiode array detector, was used to investigate the fast kinetic reduction of the hAIF variants by the NADH coenzyme. Samples of ~10 μM hAIF∆1-101ox were mixed with increasing concentrations of NADH (0.03-10 mM) under aerobic conditions in 50 mM potassium phosphate, pH 7.4, at 25 °C. The enzyme and NADH concentrations are the final ones obtained after mixing equal volumes of substrate and enzyme. Observed rate constants for the hydride transfer (HT) event (kobs) were calculated by global analysis and numerical integration methods (simultaneously using all spectral data in the 400-800 nm region along time evolution). A single-step model (A→B) best fitted to describe the overall reaction at all NADH concentrations assayed. Averaged kobs values at each NADH concentration were then fitted to the equation that describes the formation of an enzyme:substrate complex prior to the HT event: (3) kobs=kHTNADH/KdNADH+NADH+krev, where kHT is the limiting rate constant for HT from the pyridine nucleotide coenzyme to the FAD cofactor of hAIF, Kd^NADH is the dissociation constant of the transient hAIF∆1-101ox:NADH complex, and krev is the reaction constant for a potential overall reverse process.

A short description of series [3]: Stopped-flow CTC formation on mixing photoreduced hAIF∆1-101 with NAD+. Format: biochemical. The following applies: anaerobic, 25°C, pH 7.4. How it is done:
Stopped-flow spectrophotometry was also used to evaluate the rate constants of CTC formation when mixing photoreduced hAIF∆1-101 (hAIF∆1-101phrd) with increasing concentrations of NAD^+ (0.125-5 mM) under anaerobic conditions. hAIF∆1-101phrd samples were obtained by photoreduction in the presence of 5 μM methyl viologen, 3 μM 5-deazariboflavin, and 20 mM EDTA. The assays were performed at 25 °C in 50 mM potassium phosphate, pH 7.4, under anaerobic conditions (obtained by several cycles of vacuum application and bubbling with O2 free argon). Data were global fitted to a single step model (A→B), and kobs were determined at the different NAD^+ concentrations assayed. These values were then fitted to the equation that describes the formation of a transient hAIF∆1-101phrd:NAD^+ complex prior to the CTC stabilization: (4) kobs=kCTCNAD^+/KdNAD++NAD^+, in which kCTC is the limiting rate constant for the rearrangement of the encounter complex to form the CTC, and Kd^NAD+ is the dissociation constant for the mentioned transient encounter complex.

The nature of series [4]: Reactivity of the CTC towards molecular oxygen (CTC half-life). Format: biochemical. As to conditions: 25°C, air saturated 50 mM potassium phosphate, pH 7.4. On the procedure:
The reactivity of the CTC towards molecular oxygen was monitored by full reduction of hAIF∆1-101 samples with NADH (1.5-fold the concentration of the protein) in 50 mM phosphate buffer, pH 7.4, and following their reoxidation in a Cary 100 spectrophotometer (Agilent, Santa Clara, CA). Absorption spectra were recorded at 25 °C until full oxidation of the flavin cofactor was achieved. For each time, the percent remaining of CTC versus reoxidation by molecular oxygen was estimated as ΔAt/ΔAmax, where ΔAmax is the difference between the minimum and the maximum absorbance at 700 nm, and ΔAt is the difference of each value at 700nm minus the minimum absorbance at 700 nm. The CTC half-life is the time at which 50% of CTC still remains.

The target of series [5] is T1, CHCHD4 (Homo sapiens, UniProt Q8N4Q1).
T1 construct: His6 (N); made in house; host or cells: E. coli C41 (DE3)
T1 sequence (Q8N4Q1 1-142): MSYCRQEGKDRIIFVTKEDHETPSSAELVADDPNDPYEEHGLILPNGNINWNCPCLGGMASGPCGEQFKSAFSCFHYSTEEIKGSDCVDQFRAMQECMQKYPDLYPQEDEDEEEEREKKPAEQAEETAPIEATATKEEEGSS
In words: ITC binary interaction with CHCHD4. Format: binding. The following applies: 25°C, pH 7.4. On the procedure: (§1) ITC assays were carried out using an Auto-iTC200 (MicroCal, Malvern-Panalytical, Malvern, UK) thermostated at 25 °C. Typically, […] protein partner and dsDNA samples—prepared as described below—were used to titrate ~10 μM hAIF∆1-101 variants. All solutions were degassed at 15°C for 1 min before each assay. A sequence of 2 μL injections of titrant solution every 150 s was programmed, and the stirring speed was set to 750 rpm. The association constant (Ka), the enthalpy of binding (ΔH), and the binding stoichiometry (N) were estimated through nonlinear least-squares regression of the experimental data employing a single-ligand binding site model implemented in Origin 7.0 (OriginLab, Northampton, MA). The dissociation constant (Kd), the free energy change (ΔG), and the entropy change (ΔS) were obtained from basic thermodynamic relationships.

Series [6] addresses T2, CypA (Homo sapiens, UniProt P62937).
T2 construct: His6 (N); made in house; host or cells: E. coli C41 (DE3)
In words: ITC binary interaction with CypA. The following applies: oxidized hAIF∆1-101 titrated with CypA, 25°C, pH 7.4. Format: binding. On the procedure:
as §1

The target in series [7] is dsDNA. Nature of the series: ITC binary interaction with dsDNA. The series is classed as binding. The following applies: oxidized hAIF∆1-101 titrated with 15-bp dsDNA, 25°C, pH 7.4. How it is done:
as §1
Since hAIF binds DNA unspecifically, a 0.5 mM dsDNA sample was prepared from 1 mM solutions of HPLC-purified forward and a reverse complementary 15-bp oligonucleotides (5′- GGT TAG TTA TGC GCG -3′; randomly designed) synthetized by Integrated DNA Technologies. The pair of oligonucleotides was mixed at an equimolar ratio and annealed by heating 1 min at 99°C and performing a 3 h temperature scanning from 95 to 25°C, decreasing 1°C each 3 min. 0.5 mM dsDNA stock solutions were obtained.

For series [8], the target named is T3, W196A hAIF_(Δ1-101) (human, UniProt O95831 102-613, W196A).
T3 construct: FAD holoprotein; 'ox' oxidized, 'CTC' after reduction with NADH; The His6 tag is called cleavable; whether it was cleaved is told only in the supplementary materials; also called W196Aox; source: E. coli C41 (DE3), purified to homogeneity (protocol in the supplementary materials)
T3 sequence (O95831 102-613 W196A): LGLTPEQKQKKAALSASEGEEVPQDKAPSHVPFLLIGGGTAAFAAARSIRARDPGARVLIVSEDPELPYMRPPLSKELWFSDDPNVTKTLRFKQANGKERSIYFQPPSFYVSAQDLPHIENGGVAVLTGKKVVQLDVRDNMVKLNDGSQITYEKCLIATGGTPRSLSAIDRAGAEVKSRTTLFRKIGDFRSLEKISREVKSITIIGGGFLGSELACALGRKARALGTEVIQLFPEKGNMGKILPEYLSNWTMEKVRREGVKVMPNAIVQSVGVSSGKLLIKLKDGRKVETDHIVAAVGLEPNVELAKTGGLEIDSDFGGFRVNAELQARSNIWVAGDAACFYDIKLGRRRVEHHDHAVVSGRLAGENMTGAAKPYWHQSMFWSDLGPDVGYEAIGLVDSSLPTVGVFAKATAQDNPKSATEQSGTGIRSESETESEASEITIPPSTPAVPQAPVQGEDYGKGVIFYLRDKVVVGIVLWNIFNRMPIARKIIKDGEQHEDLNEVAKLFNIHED
Nature of the series: ITC; Auto-iTC200, 25°C, 50 mM potassium phosphate, pH 7.4; 10-20 μM protein partner titrated into ~10 μM oxidized hAIF_(∆1-101) variant, without NADH; single-ligand binding site model. The following applies: both partners purified. On the technique in general: In ITC the heat of successive injections is recorded.

Series [9] deals with T4, WT human apoptosis-inducing factor hAIF_(Δ1-101) (human, UniProt O95831 102-613).
T4 construct: FAD holoprotein. 'ox' is the oxidized protein; 'CTC' is the same protein reduced by an excess of NADH (FADH-/NAD+ charge transfer complex); The His6 tag is called cleavable; whether it was cleaved is told only in the supplementary materials; also called WTox; source: protocol in the supplementary materials
T4 sequence (O95831 102-613, stated change not applied): as the sequence (O95831 102-613 W196A) above, with A95W counted along it
In words: ITC; Auto-iTC200, 25°C, 50 mM potassium phosphate, pH 7.4; 10-20 μM protein partner titrated into ~10 μM hAIF_(∆1-101) variant in the CTC state (premixed with NADH at a 1 : 100 ratio); single-ligand binding site model. The following applies: both partners purified.

The target of series [10] is T5, W196Y hAIF_(Δ1-101) (human, UniProt O95831 102-613, W196Y).
T5 construct: FAD holoprotein; 'ox' oxidized, 'CTC' after reduction with NADH; The His6 tag is called cleavable; whether it was cleaved is told only in the supplementary materials; also called W196Yox; W196Y CTC; source: E. coli C41 (DE3), purified to homogeneity (protocol in the supplementary materials)
T5 sequence (O95831 102-613 W196Y): as the sequence (O95831 102-613 W196A) above, with A95Y counted along it
The description is as above. As to conditions: both partners purified.

The target in series [11] is T3, W196A hAIF_(Δ1-101). Described as above. The following applies: both partners purified.
The mark [12] stands for this setting: CTC form titrated with CHCHD4, ITC.

“Also recorded” adds a separate entry of the source. Read-outs that look alike come from different tables or passages of the source.

T2 sequence (P62937 whole entry): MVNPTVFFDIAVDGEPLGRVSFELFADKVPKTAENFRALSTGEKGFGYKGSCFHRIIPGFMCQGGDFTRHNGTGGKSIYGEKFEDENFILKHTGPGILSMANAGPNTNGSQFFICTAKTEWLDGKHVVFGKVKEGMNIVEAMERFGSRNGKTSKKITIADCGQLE

In the case of “WT: wild-type human apoptosis-inducing factor, soluble form hAIF∆1-101 (UniProtKB O95831); ox = oxidized, CTC = NADH-reduced charge transfer complex”, the “K m ^NADH” value in series [1] was found to be 495 ± 170 µM. This molecule also returned a k cat in series [1] (n = 3, mean ± SD) of 0.9 ± 0.1 s⁻¹. In addition, the “k HT/Kd^NADH” value in series [2] was determined as 400 ± 100 M⁻¹ s⁻¹. Also, the “k HT” value in series [2] (hydride transfer from NADH to FAD, aerobic, 50 mM potassium phosphate) was found to be 1.5 ± 0.1 s⁻¹. The Kd in [2] (transient hAIF∆1-101ox:NADH complex, read-out: K d ^NADH) is 4090 ± 300 µM; in series [3] (transient hAIF∆1-101phrd:NAD+ complex, read-out: K d ^NAD+), 2080 ± 250 µM; in [5] (CTC form (premixed with NADH 1:100) titrated with CHCHD4, ITC, read-out: K d), 0.2 µM; in [5] (oxidized hAIF∆1-101 titrated with CHCHD4, ITC, 50 mM potassium phosphate, listed as WTox), “heat exchange was not observed; also recorded: No detected binding”; in series [7], 1.6 µM. In addition, in series [3] (hAIF∆1-101phrd variants mixed with NAD+), the “k CTC” value is 45 ± 2 s⁻¹. Also, in series [3] (hAIF∆1-101phrd variants), the “k CTC/Kd^NAD+” value was 22000 ± 3000 M⁻¹ s⁻¹. For the same molecule, the “CTC half-life versus reoxidation by O2” value in series [4] stood at 1.2 h. The entries for the “-TΔS” value in series [5] (setting [12]) and in [6] were 11.4 kcal/mol and 17.2 kcal/mol, respectively. Further, the ΔG was -8.7 kcal/mol in series [5] (setting [12]) and -7.3 kcal/mol in series [6]. Further, the ΔH in series [5] (setting [12]) is on record as -20.1 kcal/mol; in [6] it was -24.5 kcal/mol. For the same molecule, the “ΔH (unfolding enthalpy)” value came out at 150 ± 4 kcal/mol (CTC hAIF∆1-101rd:NAD^+, 100-fold excess NADH) and 128 ± 3 kcal/mol (hAIF∆1-101ox, pH 7.4, ionic strength 150 mM). Besides, the “T m CTC ^FAD” value (CTC hAIF∆1-101rd:NAD^+, 100-fold excess NADH, pH 7.4, ionic strength 150 mM) is 324 ± 1 K. Further, the “T m CTC ^FAD − Tm^FAD” value (CTC state relative to oxidized state of the same variant) is −13 ± 2 K. Also, the “T m ^FAD” value (hAIF∆1-101ox, ~2 μM protein, 50 mM potassium phosphate, pH 7.4, ionic strength 150 mM) stood at 337 ± 1 K.

B1: human CHCHD4 (coiled-coil-helix-coiled-coil-helix domain containing 4) (natural protein, UniProt Q8N4Q1 1-142, looked up)
chain: MSYCRQEGKDRIIFVTKEDHETPSSAELVADDPNDPYEEHGLILPNGNINWNCPCLGGMASGPCGEQFKSAFSCFHYSTEEIKGSDCVDQFRAMQECMQKYPDLYPQEDEDEEEEREKKPAEQAEETAPIEATATKEEEGSS
notes: human CHCHD4, UniProtKB Q8N4Q1; synthetic codon-optimised cDNA in pET28a (NdeI-NotI); The His6 tag is called cleavable; whether it was cleaved is told only in the supplementary materials; source: E. coli C41 (DE3), purified (protocol in the supplementary materials)
As to B1, the Kd turned out to be 0.4 µM in series [8], 0.2 µM in [9], 2.1 µM in series [10] and 0.5 µM in [11]. The dH in series [8] was 9.6 kcal/mol; in series [9] it was -20.1 kcal/mol; in series [10], -8.2 kcal/mol; in series [11], -5.9 kcal/mol.
